{"source": "patent US20190241648A1", "about": "(STATEN BIOTECHNOLOGY B V, published 2019)", "binders": {"B1": {"name": "anti-ApoC3 antibody 14C7 (antibody, V domains shown)", "VH": "QVQVQESGPGLVKPSQTLSLTCTVSGGSITTNSYYWSWIRQPPGKGLEWMGAIDYSGDTYYSPSLKSRTSISRDTSKNQFTLQLTSVTPEDTAVYYCVSRIPTGEYWGQGTQVTVSS", "VL": "QTVVTQEPSLSVSPGGTVTLTCGLNSGSVTSSNYPDWYQQTPGQAPRLLIYNTNSRHSGVPSRFSGSISGNKAALTITGAQPEDEADYYCALYMGSDSVVFGGGTHLTVL", "notes": "it was detected with goat anti-human IgG (Fc); also called mAb 14C7; llama antibody 14C7"}}, "test_in_all_cases": "peptide microarray", "key": {"ApoC3 peptide … F47A": {"target": "T1, ApoC3 peptide … F47A (human, not fully specified (bridges); also: cyclic constrained)", "T1 peptide": "ARGWVTDGASSLK", "excerpt": "(§1) Amino acids G41 and G46 were highly conserved; substitution of G41 by E, N or Q caused a decrease of spot intensities by ˜70% or higher, whereas exchange of G46 by N was hardly tolerated and resulting in 90% reduced spot intensities. […] Amino acid positions V43, D45 and K51 were also well conserved with a clear preference for the wild type amino acids and a certain tolerance particularly for conservative exchanges by Y, F and I (V43), A, E and K (D45) as well as by R (K51). […] Replacement of V43 by Y, however, increased spot intensity by two fold. Amino acid positions W42 and 48S were poorly conserved or even variable; both positions were susceptible for only a number of amino acid exchanges, and exchange by F, S and T (W42) or by E (S48) even caused a two- to three-fold increase of spot intensity. Amino acid positions A39 and R40 were variable.\n(§2) Pre: staining of one of the ApoC3 peptide microarrays was done with the secondary antibody goat anti-human IgG (Fe) DyLight680 (1:5000) and control antibody mouse monoclonal anti-HA (12CA5) DyLight800 (1:2000) to investigate background interactions of the secondary antibody with the antigen-derived peptides that could interfere with the main assays. Subsequent incubation of other ApoC3 peptide microarrays with antibody samples was followed by staining with secondary and control antibodies as well as read-out at scanning intensities of 7/7 (red/green). The additional HA peptides framing the peptide arrays were stained as internal quality control to confirm the assay quality and the peptide microarray integrity."}, "ApoC3 peptide … G46C": {"target": "T2, ApoC3 peptide … G46C (human, also: cyclic constrained)", "T2 peptide": "ARGWVTDCFSSLK", "excerpt": "as §1, §2"}, "ApoC3 peptide … K51C": {"target": "T3, ApoC3 peptide … K51C (human, thioether (positions not given here); also: cyclic constrained)", "T3 peptide": "ARGWVTDGFSSLC", "excerpt": "as §1, §2"}, "ApoC3 peptide … S49D": {"target": "ApoC3 peptide … S49D (human, cyclic constrained)", "excerpt": "as §1, §2"}, "ApoC3 peptide … F47E": {"target": "T4, ApoC3 peptide … F47E (human, not fully specified (bridges); also: cyclic constrained)", "T4 peptide": "ARGWVTDGESSLK", "excerpt": "as §1, §2"}, "ApoC3 peptide … S48E": {"target": "ApoC3 peptide … S48E (human, cyclic constrained)", "excerpt": "as §1, §2"}, "ApoC3 peptide … K51F": {"target": "T5, ApoC3 peptide … K51F (human, thioether (positions not given here); also: cyclic constrained)", "T5 peptide": "ARGWVTDGFSSLF", "excerpt": "as §1, §2"}, "ApoC3 peptide … F47G": {"target": "T6, ApoC3 peptide … F47G (human, not fully specified (bridges); also: cyclic constrained)", "T6 peptide": "ARGWVTDGGSSLK", "excerpt": "as §1, §2"}, "ApoC3 peptide … V43H": {"target": "T7, ApoC3 peptide … V43H (human, not fully specified; cyclic constrained)", "T7 peptide": "ARGWHTDGFSSLK", "excerpt": "as §1, §2"}, "ApoC3 peptide … W42I": {"target": "T8, ApoC3 peptide … W42I (human, not fully specified (bridges); also: cyclic constrained)", "T8 peptide": "ARGIVTDGFSSLK", "excerpt": "as §1, §2"}, "ApoC3 peptide … S49I": {"target": "T9, ApoC3 peptide … S49I (human, cyclic constrained)", "T9 peptide": "ARGWVTDGFSILK", "excerpt": "as §1, §2"}, "ApoC3 peptide … V43K": {"target": "T10, ApoC3 peptide … V43K (human, not fully specified; cyclic constrained)", "T10 peptide": "ARGWKTDGFSSLK", "excerpt": "as §1, §2"}, "ApoC3 peptide … S49K": {"target": "T11, ApoC3 peptide … S49K (human, cyclic constrained)", "T11 peptide": "ARGWVTDGFSKLK", "excerpt": "as §1, §2"}, "ApoC3 peptide … A39L": {"target": "T12, ApoC3 peptide … A39L (human, cyclic constrained)", "T12 peptide": "LRGWVTDGFSSLK", "excerpt": "as §1, §2"}, "ApoC3 peptide … R40L": {"target": "T13, ApoC3 peptide … R40L (human, not fully specified (bridges); also: cyclic constrained)", "T13 peptide": "ALGWVTDGFSSLK", "excerpt": "as §1, §2"}, "ApoC3 peptide … V43L": {"target": "T14, ApoC3 peptide … V43L (human, not fully specified; cyclic constrained)", "T14 peptide": "ARGWLTDGFSSLK", "excerpt": "as §1, §2"}, "ApoC3 peptide … D45N": {"target": "T15, ApoC3 peptide … D45N (human, cyclic constrained)", "T15 peptide": "ARGWVTNGFSSLK", "excerpt": "as §1, §2"}, "ApoC3 peptide … R40P": {"target": "T16, ApoC3 peptide … R40P (human, not fully specified (bridges); also: cyclic constrained)", "T16 peptide": "APGWVTDGFSSLK", "excerpt": "as §1, §2"}, "ApoC3 peptide … T44P": {"target": "T17, ApoC3 peptide … T44P (human, not fully specified (bridges); also: cyclic constrained)", "T17 peptide": "ARGWVPDGFSSLK", "excerpt": "as §1, §2"}, "ApoC3 peptide … K51P": {"target": "T18, ApoC3 peptide … K51P (human, not fully specified; cyclic constrained)", "T18 peptide": "ARGWVTDGFSSLP", "excerpt": "as §1, §2"}, "ApoC3 peptide … S48Q": {"target": "ApoC3 peptide … S48Q (human, cyclic constrained)", "excerpt": "as §1, §2"}, "ApoC3 peptide … G41R": {"target": "T19, ApoC3 peptide … G41R (human, also: cyclic constrained)", "T19 peptide": "ARRWVTDGFSSLK", "excerpt": "as §1, §2"}, "ApoC3 peptide … W42R": {"target": "T20, ApoC3 peptide … W42R (human, not fully specified (bridges); also: cyclic constrained)", "T20 peptide": "ARGRVTDGFSSLK", "excerpt": "as §1, §2"}, "ApoC3 peptide … F47R": {"target": "T21, ApoC3 peptide … F47R (human, also: cyclic constrained)", "T21 peptide": "ARGWVTDGRSSLK", "excerpt": "as §1, §2"}, "ApoC3 peptide … G46S": {"target": "T22, ApoC3 peptide … G46S (human, thioether (positions not given here); also: cyclic constrained)", "T22 peptide": "ARGWVTDSFSSLK", "excerpt": "as §1, §2"}, "ApoC3 peptide … L50S": {"target": "T23, ApoC3 peptide … L50S (human, not fully specified (bridges); also: cyclic constrained)", "T23 peptide": "ARGWVTDGFSSSK", "excerpt": "as §1, §2"}, "ApoC3 peptide … S49T": {"target": "T24, ApoC3 peptide … S49T (human, not fully specified (bridges); also: cyclic constrained)", "T24 peptide": "ARGWVTDGFSTLK", "excerpt": "as §1, §2"}, "ApoC3 peptide … A39V": {"target": "T25, ApoC3 peptide … A39V (human, not fully specified (bridges); also: cyclic constrained)", "T25 peptide": "VRGWVTDGFSSLK", "excerpt": "as §1, §2"}, "ApoC3 peptide … T44V": {"target": "T26, ApoC3 peptide … T44V (human, not fully specified (bridges); also: cyclic constrained)", "T26 peptide": "ARGWVVDGFSSLK", "excerpt": "as §1, §2"}, "ApoC3 peptide … K51V": {"target": "T27, ApoC3 peptide … K51V (human, not fully specified; cyclic constrained)", "T27 peptide": "ARGWVTDGFSSLV", "excerpt": "as §1, §2"}, "ApoC3 peptide … A39W": {"target": "T28, ApoC3 peptide … A39W (human, not fully specified (bridges); also: cyclic constrained)", "T28 peptide": "WRGWVTDGFSSLK", "excerpt": "as §1, §2"}}, "note": "Ends that are not written are not given here.", "data": [{"binder": "B1", "values": [{"measurement": "% of binding to wild-type peptide", "setting": "ApoC3 peptide … F47A", "value": 0, "unit": "%"}, {"measurement": "% of binding to wild-type peptide", "setting": "ApoC3 peptide … G46C", "value": 0, "unit": "%"}, {"measurement": "% of binding to wild-type peptide", "setting": "ApoC3 peptide … K51C", "value": 0, "unit": "%"}, {"measurement": "% of binding to wild-type peptide", "setting": "ApoC3 peptide … S49D", "value": 0, "unit": "%"}, {"measurement": "% of binding to wild-type peptide", "setting": "ApoC3 peptide … F47E", "value": 0, "unit": "%"}, {"measurement": "% of binding to wild-type peptide", "setting": "ApoC3 peptide … S48E", "value": 290, "unit": "%"}, {"measurement": "% of binding to wild-type peptide", "setting": "ApoC3 peptide … K51F", "value": 6.24, "unit": "%"}, {"measurement": "% of binding to wild-type peptide", "setting": "ApoC3 peptide … F47G", "value": 0, "unit": "%"}, {"measurement": "% of binding to wild-type peptide", "setting": "ApoC3 peptide … V43H", "value": 14.6, "unit": "%"}, {"measurement": "% of binding to wild-type peptide", "setting": "ApoC3 peptide … W42I", "value": 27.9, "unit": "%"}, {"measurement": "% of binding to wild-type peptide", "setting": "ApoC3 peptide … S49I", "value": 0, "unit": "%"}, {"measurement": "% of binding to wild-type peptide", "setting": "ApoC3 peptide … V43K", "value": 25.4, "unit": "%"}, {"measurement": "% of binding to wild-type peptide", "setting": "ApoC3 peptide … S49K", "value": 3.23, "unit": "%"}, {"measurement": "% of binding to wild-type peptide", "setting": "ApoC3 peptide … A39L", "value": 77.5, "unit": "%"}, {"measurement": "% of binding to wild-type peptide", "setting": "ApoC3 peptide … R40L", "value": 54.2, "unit": "%"}, {"measurement": "% of binding to wild-type peptide", "setting": "ApoC3 peptide … V43L", "value": 429, "unit": "%"}, {"measurement": "% of binding to wild-type peptide", "setting": "ApoC3 peptide … D45N", "value": 4.85, "unit": "%"}, {"measurement": "% of binding to wild-type peptide", "setting": "ApoC3 peptide … R40P", "value": 52.7, "unit": "%"}, {"measurement": "% of binding to wild-type peptide", "setting": "ApoC3 peptide … T44P", "value": 0, "unit": "%"}, {"measurement": "% of binding to wild-type peptide", "setting": "ApoC3 peptide … K51P", "value": 0.24, "unit": "%"}, {"measurement": "% of binding to wild-type peptide", "setting": "ApoC3 peptide … S48Q", "value": 46.8, "unit": "%"}, {"measurement": "% of binding to wild-type peptide", "setting": "ApoC3 peptide … G41R", "value": 19.4, "unit": "%"}, {"measurement": "% of binding to wild-type peptide", "setting": "ApoC3 peptide … W42R", "value": 141, "unit": "%"}, {"measurement": "% of binding to wild-type peptide", "setting": "ApoC3 peptide … F47R", "value": 0, "unit": "%"}, {"measurement": "% of binding to wild-type peptide", "setting": "ApoC3 peptide … G46S", "value": 0, "unit": "%"}, {"measurement": "% of binding to wild-type peptide", "setting": "ApoC3 peptide … L50S", "value": 0, "unit": "%"}, {"measurement": "% of binding to wild-type peptide", "setting": "ApoC3 peptide … S49T", "value": 6.21, "unit": "%"}, {"measurement": "% of binding to wild-type peptide", "setting": "ApoC3 peptide … A39V", "value": 76, "unit": "%"}, {"measurement": "% of binding to wild-type peptide", "setting": "ApoC3 peptide … T44V", "value": 4.26, "unit": "%"}, {"measurement": "% of binding to wild-type peptide", "setting": "ApoC3 peptide … K51V", "value": 3.85, "unit": "%"}, {"measurement": "% of binding to wild-type peptide", "setting": "ApoC3 peptide … A39W", "value": 59.4, "unit": "%"}]}]}
